Substrate in series [1]: NC(=O)N/N=C/c1ccc([N+](=O)[O-])o1
As to the kind of experiment: purified protein. To be noted: FMN; pH 7.0; 25.0 °C. The series is classed as biochemical, Escherichia coli.

Substrate in series [2]: NC(=O)C1=CN([C@@H]2O[C@H](COP(=O)(O)OP(=O)(O)OC[C@H]3O[C@@H](n4cnc5c(N)ncnc54)[C@H](OP(=O)(O)O)[C@@H]3O)[C@@H](O)[C@H]2O)C=CC1
As to the kind of experiment: purified protein. It counts as biochemical, Escherichia coli. To be noted: FMN; pH 7.0; 25.0 °C.

For orientation: Km means the concentration of substrate that gives half-maximal velocity. A word on the kcat: it is the maximal rate divided by the concentration of active sites. Broadly, the kcat/Km is the second-order rate constant that governs catalysis at low substrate concentration.

B1: NfsA (Escherichia coli K-12) (protein)
chain: MTPTIELICGHRSIRHFTDEPISEAQREAIINSARATSSSSFLQCSSIIRITDKALREELVTLTGGQKHVAQAAEFWVFCADFNRHLQICPDAQLGLAEQLLLGVVDTAMMAQNALIAAESLGLGGVYIGGLRNNIEAVTKLLKLPQHVLPLFGLCLGWPADNPDLKPRLPASILVHENSYQPLDKGALAQYDEQLAEYYLTRGSNNRRDTWSDHIRRTIIKESRPFILDYLHKQGWATR
notes: untagged full-length
For the protein B1, in the series “purified protein [1]”, the Km was 27 ± 6 µM, the kcat is 25 ± 2 s⁻¹ and the kcat/Km worked out at 930000 ± 100000 M⁻¹ s⁻¹. Moreover, in the series “purified protein [2]”, the Km stood at 29 ± 6 µM, the kcat was determined as 25 ± 2 s⁻¹ and the kcat/Km was found to be 860000 ± 100000 M⁻¹ s⁻¹.

These data come from publication PMC10953011, “Oxygen‐insensitive nitroreductase E. coli NfsA, but not NfsB, is inhibited by fumarate” (Proteins, 2022).
